# Source: US20240358834A1 (University of Pennsylvania, published 2024)
# T1: human CD19 protein with a biotinylated AviTag (Acrobiosystems) (human, UniProt P15391 20-291, biotinylated AviTag)
# T1 construct: Captured on streptavidin-coated microplate wells; also called biotinylated-AviTag-CD19; hCD19; not shown: AviTag
# T1 sequence (looked up): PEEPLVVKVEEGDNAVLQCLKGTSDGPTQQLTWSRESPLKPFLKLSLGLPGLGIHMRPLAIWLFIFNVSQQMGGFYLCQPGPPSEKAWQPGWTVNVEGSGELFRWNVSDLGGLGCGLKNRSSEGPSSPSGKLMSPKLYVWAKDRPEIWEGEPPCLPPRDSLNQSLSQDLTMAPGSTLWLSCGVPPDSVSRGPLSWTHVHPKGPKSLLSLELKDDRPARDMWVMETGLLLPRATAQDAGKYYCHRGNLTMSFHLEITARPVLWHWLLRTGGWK
# B1: scFv 15 (scFv)
# scFv: SYELTQPPSVSAALGQGVTISCIGSDTNIGNHYDVQWYQQLPGKSPRTIIYGNSDRPSGVPGRFSGSKSGNTATLTITGIQAEDEADYHCQSYDDDLDGHIVFGGGTHLTVLGGGSSRSSSSGGGGSGGGGEVQLVQSGGDLVKPGGSLRLSCVASGFTFNKYHMSWVRQAPGKGLQWVGKITSDGSATGYADAVKGRFTISRDNAKNTFYLQMDSLRAEDTAMYYCARDQSSWGTGNFDYWGQGTLVTVSSASTTAPSVTSGQAGQHHHHHHGAYPYDVPDYAS
# notes: Canine scFv (VL-linker-VH); also called P3-59A
# B2: scFv 2 (scFv)
# scFv: SYVLTQSPSLSGSLGQKVTISCTGSRSNLGGNYVGWYQQVPGMAPRNVIYANDFRPSRIPARFSASKSGTSATLTISGLQAEDEADYFCSSWDDDLGSHVFGSGTQLTILGGGSSRSSSSGGGGSGGGGEEQLVEFGGDLVKPGGSLRLSCVASGFSFSSYDMSWVRQAPGKGLQWVASTNFDGSRTYYTDAVEGRFTISRDNARNTVYLQMNSLRAEDTAVYYCARGMGSWGASTFGYWGQGTLVTVSSASTTAPSVTSGQAGQHHHHHHGAYPYDVPDYAS
# notes: Canine scFv (VL-linker-VH); also called scFv_02; P3-21
# B3: scFv 20 (scFv)
# scFv: QSVLNQPPSVSVSLGQTATISCSGESLSKYYAQWFQQKAGQVPVLVIYKDTERPSGIPDRFSGSSSGNTHTLTISGARAEDEADYYCESEVSPDTIVFGGGTHLTVLGGGSSRSSSSGGGGSGGGGEVQLVESGGDLVKPGGSLRLSCVASGFTFSSYAMSWVRQAPGEGLQWVAYINSAGSTTYYADAVKGRFTISRDNARNTVYLQMNSLRAEDTAVYYCGRYYYGLDYWGPGTSVFVSSESPSPPNLTSGQAGQHHHHHHGAYPYDVPDYAS
# notes: Canine scFv (VL-linker-VH); also called P3-12
# B4: scFv 17 (scFv)
# scFv: QPVLTQPPSVSAALGQRVTISCTGSKTNIGSGYDVQWYQQLPGKSPKTIIYGNSNRPSGVPARFSGSKSGSIATLTITGIQAEDEADYYCQSFDDNVDGYVFGSGTQLTILGGGSSRSSSSGGGGSGGGGEVPLVESGGDLVKPGGSLRLSCVASGFTFSSYGMSWVRQAPGKGLQWVAYINGGGSSTSYADAVRGRFTISRDNAENTLYLQMNSLRADDTAVYYCSNYYGIYWDSDYWGQGTLVTVSSESPSPPNLTSGQAGQHHHHHHGAYPYDVPDYAS
# notes: Canine scFv (VL-linker-VH); also called P4-05A; P4-05B
# B5: scFv 22 (scFv)
# scFv: QPVLTQPPSVSGSLGQRVTISCTGSSSNVGYGDYVGWYQQLPGTSPRTLIYSSSSRPSGVPDRFSGSRSGSTATLTISGLQAEDEADYHCSSYDTSLNGFVFGSGTQLTILGGGSSRSSSSGGGGSGGGGELTLQESGPGLVKPAQTLSLTCTVSGDSVTSSHFWHWIRQRPGRGLEWMGYWSDITIYSPTFQGRISITVDTARNQFSLHLNSVTTEDSAVYFCARYNGYVDYLDVWGQGTLITVSSASTTAPSVTSGQAGQHHHHHHGAYPYDVPDYAS
# notes: Canine scFv (VL-linker-VH); also called P3-09; P3-11
# B6: scFv 21 (scFv)
# scFv: QPVLTQPPSVSVSLGQTATISCSGESLSKYYAQWFQQKAGQAPVLVIYKDTERPSGIPDRFSGSSSGNTHTLTISGARAEDEADYYCESAVSSDTAVFGSGTQLTVLGGGSSRSSSSGGGGSGGGGEVQLVESGGDMVKPGGSLRLSCVASGFTFSSFWMYWVRQAPGKGLQWVGGINSGGSITSYADAVKGRFTISRDNARNTLYLQMDSLRDEDTAVYYCAKPDIYGSFDHWGQGTLVTVSSESPSPPNLTSGQAGQHHHHHHGAYPYDVPDYAS
# notes: Canine scFv (VL-linker-VH); also called P3-04; P3-34
# B7: scFv 25 (scFv)
# scFv: DIVMTQTPLSLSVSPGETASISCKASQSLLHSNGNTYLNWFRQKPGQSPQVLIYQVSNRDTGVPDRFSGSGSGTDFTLRISRVEADDAGVYYCGQGIQYPPTFGAGTKVELKGGSSRSSSSGGGGSGGGGEEQLVEFGGDLVKPGGSLRLSCVASGFTFSSLSMNWIRQAPGKGLQWVSQISPDGTITGYTDAVKGRFTISRDNAKNTLYLQMNSLRDEDTAIYYCAKSRYTDTYPFDYWGPGTLVTVSSESPSPPNLTSGQAGQHHHHHHGAYPYDVPDYAS
# notes: Canine scFv (VL-linker-VH); also called P3-40
# B8: scFv 16 (scFv)
# scFv: QSVLTQPTSVSGSLGQRVTISCTGSSSNVGYGNYVGWYQQLPGTGPRTLIYGSHYRPSGVPDRFSGSSSGSSATLTISGLQAEDEADYYCSSYDSTLSGYVFGSGTQLTILGGGSSRSSSSGGGGSGGGGEVQLVESGGDLVKPGGSLRLSCVGSGFTLSSYWMSWVRQAPGKGLQWIAEISGSGNTIYYGDAVKGRFTISRDNAKNTLYLQMNSLRDEDTAVYYCATEYYWNIDNWGQGTLVTVSSESPFPPNLTSGQAGQHHHHHHGAYPYDVPDYAS
# notes: Canine scFv (VL-linker-VH); also called P3-33; P4-01
# B9: scFv 18 (scFv)
# scFv: QSALTQTASVSGSLGQKVTISCTGSRSNIGANYVGWYQQVPGIGPRTVIFGYNYRPSGVPDRFSSSKSGNSATLTISGLQAEDEAEYYCSTWDSSLNAYVFGSGTQLTVLGGGSSRSSSSGGGGSGGGGEVPLVESGGDLVKPGGSLRLSCVASGFTLSNYGMSWVRQSPGKGLQWVAAIRSGGNTYYADAVKGRFTISRDNAKNTLYLQMNSLRAEDTAVYYCASQWGDWGHFEYWGQGTLVTVSSASTTAPSVTSGQAGQHHHHHHGAYPYDVPDYAS
# notes: Canine scFv (VL-linker-VH); also called P4-12
# B10: scFv 23 (scFv)
# scFv: DIVMTQTPLSLSVSPGEPASISCKASQSLLHSNGNTYLYWFRQKPGQSPQRLIYLVSNRDAGVPDRFSGSGSGTDFTLRISRVEADDSGIYYCGQGKQDPITFGEGTHLEIKGGSSRSSSSGGGGSGGGGELTLQESGPGLVKPSQTLSLTCVVSGGSVTTSDYWNWLRQRPGRGLEYMGYWKGRTEYNPAFQGRISITADTAKNQFSLQLNSVTADDTAIYYCAHWGSGNLDYWGPGTLVTVSSESPSPPNLTSGQAGQHHHHHHGAYPYDVPDYAS
# notes: Canine scFv (VL-linker-VH); also called P3-37
# B11: scFv 12 (scFv)
# scFv: SYELTQPPSATVTLRQTARLTCGGENIGRKSVQWYQQKPGQSPLLIIYADSSRPSGIPERFSGANSGNTASLTISGALAEDEADYYCQIWDRNINVFGSGTQLTVLGGGSSRSSSSGGGGSGGGGEEQLVEFGGDLVKPAGSLRLSCVASGFTFSSYDMSWVRQAPGKGLQWVATISYDGSSTYYTDAVKGRFTVSRDNAKNTLYLQMNSLRAEDTALYYCAKDSGSWSHFYGLDTWGHGTSVFVSSASTTAPSVTSGQAGQHHHHHHGAYPYDVPDYAS
# notes: Canine scFv (VL-linker-VH); also called P3-48
# B12: scFv 11 (scFv)
# scFv: QPVLTQPPSVSGALGQTVTISCSGSHTNIGSGFDVQWYQQLPGKSPQTLVYANINRPSGVPARFSGSKSGSTATLTITGVQAEDEADYYCQSYDDNFDYVFGSGTQLTVLGGGSSRSSSSGGGGSGGGGEVQLVESGGDLVKPGGSLRLSCVASGFTFSDYSMSWVRQSPGKGLQWVAAIMTSGSTYYADAVKGRFTISRDNAKNTLYLQMDSLRAEDTAVYYCAHDYWFDFWGQGTLVTVSSASTTAPSVTSGQAGQHHHHHHGAYPYDVPDYAS
# notes: Canine scFv (VL-linker-VH); also called P3-57
# B13: scFv 13 (scFv)
# scFv: QPVLTQPPSVSGALGQTVTISCSGSHTNIGSGFDVQWYQQLPGKSPQTLVYANINRPSGVPARFSGSKSGSTATLTITGVQAEDEADYYCQSYDDNFDYVFGSGTQLTVLGGGSSRSSSSGDGGSGGGGEVQLVESGGGLMKPGGSLKLSCLASGFTFSRYYMYWVRQAPGKGLQWVAQISSDGRRTYYADAVQGRFTISRDNVKNTVYLQMNSLSDEDTAVYYCVREDYFDFDYWGQGTLVTVSSASTTAPSVTSGQAGQHHHHHHGAYPYDVPDYAS
# notes: Canine scFv (VL-linker-VH); also called P3-36; P3-38
# B14: scFv 14 (scFv)
# scFv: QSVLNQPPSVSAALGQRITISCTGSHTNIGSGYDVQWYQQLPGKSPRTIIYGNSDRPSGVPVRFSGSKSGNTATLTITGIQAEDEADYYCQSYDDNLNDPYVFGSGTQLTVLGGGSSRSSSSGGGGSGGGGEVQLVQSGGDLVKPGGSLRLSCVASGFAFSGKTMQWVRQAPGKGLQWVAYIQHDGSRTSYADAVKGRFTISRDNAKNTLYLQMDSLRAEDTAVYYCADHPWYGPEYWGQGTPVTVSSESPSPPNLTSGQAGQHHHHHHGAYPYDVPDYAS
# notes: Canine scFv (VL-linker-VH); also called P3-58
# B15: scFv 10 (scFv)
# scFv: QAVLNQPASVSGALGQTVTISCSGSHTNIGSGFDVQWYQQLPGKSPQTIIYANINRPSGVPARFSGSKSGSTATLTITGVQAEDEADYHCQSFDDDLDGPVFGGGTHLTVLGGGSSRSSSSGGGGSGGGGEVQLVQSGGDLVKPGGSLKISCVASGLTFNRNYMTWIRQAPGKGLQWVSEINPDGSTTSYTDAVRGRFTISRDNAKNTLYLQMNSMRDEDTAVYYCARSSWGSFDYWGQGTLVTVSSASTTAPSVTSGQAGQHHHHHHGAYPYDVPDYAS
# notes: Canine scFv (VL-linker-VH); also called P3-01
# B16: scFv 1 (scFv)
# scFv: QAVLNQPASVSAALGQRVTISCNTNIGSPYDVQWYQQLPGKSPKTIIYGNSNRPSGVPVRFSGSKSGSTATLTIAGIQAEDEADYYCQSYDDSLDGRVVFGGGTQLTVLGGGSSRSSSSGGGGSGGGGEVQLVESGGDLVKPGGSLRLSCVASGFTFSNHEMYWVRQAPGKGLEWVARIYDSGSRTRYADAVKGRFTISRDNAKNTLYLQMNSLTAEDTAVYFCAGGNSRGWTEFGMDYWGPGTLVTVSSASTTAPSVTSGQAGQHHHHHHGAYPYDVPDYAS
# notes: Canine scFv (VL-linker-VH); also called scFv_01; P3-15
# B17: scFv 19 (scFv)
# scFv: QAVLTQPASVSGPLGQRVTISCSGSTNNIGIVGAAWYQQFPGKAPKLLVYSDGSRPSGVPDRFSGSNSGNSATLTISGLQAEDEADYYCQSVDATHGTILFGGGTQLTVLGGGSSRSSSSGGGGSGGGGEVQLVETGGDLVKPAGSLRLSCAASGFPFSGYSMTWVRQAPEKGLQLVAGINSDGSHTYYTDDVKGRFTVSRDNTKYILYLQMNSLRVEDTAIYYCGSHSWGNFHYWGQGTLVTVSSESPSPPNLTSGQAGQHHHHHHGAYPYDVPDYAS
# notes: Canine scFv (VL-linker-VH); also called P3-35
# Target: T1, human CD19 protein with a biotinylated …
# Test: phage ELISA, biotinylated AviTag CD19 on streptavidin wells; signal ratio to FMC63 standard
# From the text: To identify unique human CD19-binding monoclonal scFv from the panned libraries, individual phage antibody clones were expanded, assessed for binding to CD19 by ELISA, and subjected to nucleotide sequencing to identify those clones that were unique. A total of 84 scFvs were randomly selected from the panned libraries (70 from P3 and 14 from P4).
row,Binder,ELISA hCD19 (ratio FMC63)
1,B1,0.99 ratio to FMC63
2,B2,0.49 ratio to FMC63
3,B3,0.47 ratio to FMC63
4,B4,0.66 ratio to FMC63
5,B5,0.21 ratio to FMC63
6,B6,0.71 ratio to FMC63
7,B7,0.15 ratio to FMC63
8,B8,0.41 ratio to FMC63
9,B9,0.27 ratio to FMC63
10,B10,0.36 ratio to FMC63
11,B11,0.16 ratio to FMC63
12,B12,0.31 ratio to FMC63
13,B13,0.28 ratio to FMC63
14,B14,0.59 ratio to FMC63
15,B15,0.77 ratio to FMC63
16,B16,0.84 ratio to FMC63
17,B17,0.26 ratio to FMC63
